The results in this text go back to patent publication US8501692 (REGENTS OF THE UNIVERSITY OF MICHIGAN, dated 2013).

This data set concerns the molecule itself. The experiment in a line: SDS-PAGE after oxidation with CuCl2. On the procedure: Oxidation: Purified proteins were oxidized in 50 mM Tris pH 8.0 buffer containing 100 μm CuCl_2 overnight at 4° C. CuCl_2 was then removed by chelating it by adding 1 mM EDTA to the above mixture. Protein was further purified by passing it through Q Sepharose column and eluting off the column with 150-500 mM NaCl gradient. Fractions containing purified oxidized protein were identified by running on a SDS-PAGE gel under non-reducing conditions and pooled and concentrated to 5 mg/ml and snap frozen in liq N_2 and stored at −80° C.

B1: G4C/S10C/T172R/G173Q CocE with H6 tag (enzyme)
chain: MVDCNYSVACNVMVPMRDGVRLAVDLYRPDADGPVPVLLVRNPYDKFDVFAWSTQSTNWLEFVRDGYAVVIQDTRGLFASEGEFVPHVDDEADAEDTLSWILEQAWCDGNVGMFGVSYLGVTQWQAAVSGVGGLKAIAPSMASADLYRAPWYGPGGALSVEALLGWSALIGRQLITSRSDARPEDAADFVQLAAILNDVAGAASVTPLAEQPLLGRLIPWVIDQVVDHPDNDESWQSISLFERLGGLATPALITAGWYDGFVGESLRTFVAVKDNADARLVVGPWSHSNLTGRNADRKFGIAATYPIQEATTMHKAFFDRHLRGETDALAGVPKVRLFVMGIDEWRDETDWPLPDTAYTPFYLGGSGAANTSTGGGTLSTSISGTESADTYLYDPADPVPSLGGTLLFHNGDNGPADQRPIHDRDDVLCYSTEVLTDPVEVTGTVSARLFVSSSAVDTDFTAKLVDVFPDGRAIALCDGIVRMRYRETLVNPTLIEAGEIYEVAIDMLATSNVFLPGHRIMVQVSSSNFPKYDRNSNTGGVIAREQLEEMCTAVNRIHRGPEHPSHIVLPIIKRKLAAALEHHHHHH
modifications: oxidized with CuCl2: disulfide bridge between Cys 4 of one monomer and Cys 10 of the other monomer
notes: Cloned and expressed like the CC mutant (C-terminal His tag); Cross-linked homodimer; also called CCRQ; CCRQ-CocE
Regarding B1, the binding result was “binds”.

B2: G4C/S10C/L169K/G173Q CocE with H6 tag (enzyme)
chain: MVDCNYSVACNVMVPMRDGVRLAVDLYRPDADGPVPVLLVRNPYDKFDVFAWSTQSTNWLEFVRDGYAVVIQDTRGLFASEGEFVPHVDDEADAEDTLSWILEQAWCDGNVGMFGVSYLGVTQWQAAVSGVGGLKAIAPSMASADLYRAPWYGPGGALSVEALLGWSAKIGTQLITSRSDARPEDAADFVQLAAILNDVAGAASVTPLAEQPLLGRLIPWVIDQVVDHPDNDESWQSISLFERLGGLATPALITAGWYDGFVGESLRTFVAVKDNADARLVVGPWSHSNLTGRNADRKFGIAATYPIQEATTMHKAFFDRHLRGETDALAGVPKVRLFVMGIDEWRDETDWPLPDTAYTPFYLGGSGAANTSTGGGTLSTSISGTESADTYLYDPADPVPSLGGTLLFHNGDNGPADQRPIHDRDDVLCYSTEVLTDPVEVTGTVSARLFVSSSAVDTDFTAKLVDVFPDGRAIALCDGIVRMRYRETLVNPTLIEAGEIYEVAIDMLATSNVFLPGHRIMVQVSSSNFPKYDRNSNTGGVIAREQLEEMCTAVNRIHRGPEHPSHIVLPIIKRKLAAALEHHHHHH
modifications: oxidized with CuCl2: disulfide bridge between Cys 4 of one monomer and Cys 10 of the other monomer
notes: Cloned and expressed like the CC mutant (C-terminal His tag); Cross-linked homodimer; also called CCKQ; CCKQ tetramutant
For the protein B2, the binding result is recorded as “binds”.
